Measured values reported in article PMC12673853, “Impaired nick recognition and ligation efficiency by LIG1 K845N variant linked to Huntington’s disease”.

Assays:
[1] = target: T1, LIG1 wild-type (Cy5-labelled) (human, UniProt P18858 1-919); experiment: single-molecule TIRF co-localization; tbound 7.0 ± 0.9 s and 0.7 ± 0.1 s; tunbound 61 ± 2 s; 1 nM LIG1; TIRF: 1 mM HEPES pH 7.4, 20 mM NaCl, 0.02% BSA, 0.002% Tween 20, oxygen scavenger (44 mM glucose, glucose oxidase, catalase), 10 mM Trolox, 1 nM LIG1-Cy5, room; details: protein: recombinant; tags: 6xHis; Cy5 (NHS ester); label: 5'-biotin on S15; 3'-AF488 on S18; blunt 34-bp duplex with one nick between S15 and S18; 3'-A opposite T at nick
T1 sequence (P18858 whole entry): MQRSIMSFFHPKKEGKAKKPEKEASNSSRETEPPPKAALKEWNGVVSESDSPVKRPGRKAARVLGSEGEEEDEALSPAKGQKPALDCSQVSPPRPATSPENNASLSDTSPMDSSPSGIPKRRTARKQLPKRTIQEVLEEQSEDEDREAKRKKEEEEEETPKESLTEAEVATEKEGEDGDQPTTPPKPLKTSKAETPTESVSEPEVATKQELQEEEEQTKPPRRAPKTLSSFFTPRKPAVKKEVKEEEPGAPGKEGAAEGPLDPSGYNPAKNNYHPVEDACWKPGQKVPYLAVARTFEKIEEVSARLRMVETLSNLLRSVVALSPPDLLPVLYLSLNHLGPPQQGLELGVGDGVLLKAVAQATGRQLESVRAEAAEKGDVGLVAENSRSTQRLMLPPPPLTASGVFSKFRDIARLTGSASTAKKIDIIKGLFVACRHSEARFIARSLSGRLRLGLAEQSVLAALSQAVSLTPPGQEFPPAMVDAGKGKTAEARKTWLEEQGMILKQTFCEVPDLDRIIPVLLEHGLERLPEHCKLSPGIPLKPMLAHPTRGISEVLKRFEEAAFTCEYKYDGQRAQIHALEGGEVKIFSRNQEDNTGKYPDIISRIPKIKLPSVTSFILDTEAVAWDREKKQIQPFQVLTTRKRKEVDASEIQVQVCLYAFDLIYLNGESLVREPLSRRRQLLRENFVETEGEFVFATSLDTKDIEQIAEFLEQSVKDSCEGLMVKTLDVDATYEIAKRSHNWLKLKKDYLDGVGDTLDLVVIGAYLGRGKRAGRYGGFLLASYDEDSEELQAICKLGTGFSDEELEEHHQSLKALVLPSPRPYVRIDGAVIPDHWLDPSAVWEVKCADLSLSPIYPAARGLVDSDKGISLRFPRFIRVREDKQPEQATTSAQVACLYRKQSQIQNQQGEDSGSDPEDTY

[2] = target: LIG1 K845N (Cy5-labelled) (human, UniProt P18858 1-919, K845N); experiment: single-molecule TIRF co-localization; long tbound 4 ± 0.7 s; tunbound 113 ± 8 s; similar to its nick binding, mostly nonspecific; 1 nM LIG1; TIRF: 1 mM HEPES pH 7.4, 20 mM NaCl, 0.02% BSA, 0.002% Tween 20, oxygen scavenger (44 mM glucose, glucose oxidase, catalase), 10 mM Trolox, 1 nM LIG1-Cy5, room; details: protein: recombinant; tags: 6xHis; Cy5 (NHS ester); label: 5'-biotin and 3'-AF488 on S1; blunt, no nick
Chain of LIG1 K845N (Cy5-labelled) (P18858 whole entry K845N): as the sequence (P18858 whole entry) above, with K845N counted along it

[3] = target: T1, LIG1 wild-type (Cy5-labelled); experiment: single-molecule TIRF co-localization; tunbound 79 ± 5 s; 1 nM LIG1; TIRF: 1 mM HEPES pH 7.4, 20 mM NaCl, 0.02% BSA, 0.002% Tween 20, oxygen scavenger (44 mM glucose, glucose oxidase, catalase), 10 mM Trolox, 1 nM LIG1-Cy5, room; details: protein: recombinant; tags: 6xHis; Cy5 (NHS ester); label: 5'-biotin on strand 1; 3'-AF488 on S18; blunt 34-bp duplex with one nick between strand 1 and S18; 3'-8oxoG opposite A at nick

B1: nick A:T (dsDNA)
DNA 1: CATGGGCGGCATGAACCA
DNA 2: GAGGCCCATCCTCACC
DNA 3: GGTGAGGATGGGCCTCTGGTTCATGCCGCCCATG
modifications: 5'-phosphate on S18 at nick
binding result [1]: binds

B2: no-nick dsDNA (dsDNA)
DNA 1: CATGGGCGGCATGAACCAGAGGCCCATCCTCACC
DNA 2: GGTGAGGATGGGCCTCTGGTTCATGCCGCCCATG
binding result [2]: binds

B3: nick 8oxoG:A (dsDNA)
DNA 1: CATGGGCGGCATGAACCG
DNA 2: GAGGCCCATCCTCACC
DNA 3: GGTGAGGATGGGCCTCAGGTTCATGCCGCCCATG
modifications: 8-oxo-dG at position 18 of strand 1; 5'-phosphate on S18 at nick
binding result [3]: binds
